Residue numbers refer to the chain shown, from its start. Where no end group is shown, it is not given here. [ ]: non-standard residue; d: D form. The star is where a group is joined. EDDnp = O=[N+]([O-])c1ccc(NCCN*)c([N+](=O)[O-])c1; AlaP = not defined here
Columns and labels:
wtPR3 = biological target: T1, wtPR3 (Homo sapiens, UniProt P24158); test: Hydrolysis of FRET substrates, specificity constant kcat/KM; type: biochemical
T1 sequence (P24158 28-248): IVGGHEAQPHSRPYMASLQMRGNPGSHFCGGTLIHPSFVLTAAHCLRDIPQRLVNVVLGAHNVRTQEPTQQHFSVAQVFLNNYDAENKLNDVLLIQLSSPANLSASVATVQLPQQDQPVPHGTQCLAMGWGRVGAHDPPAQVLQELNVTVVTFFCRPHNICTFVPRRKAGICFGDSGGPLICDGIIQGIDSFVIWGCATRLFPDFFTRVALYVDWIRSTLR
Description: (§1) Another critical difference between the two proteases is the replacement of a charged arginyl residue at position 217 in HNE by an Ile in PR3 in the vicinity of the S4 subsite. We investigated the importance of the S4 subsite in PR3 by producing two recombinant PR3 molecules with a […] substitution at position 99 (PR3K99L) and an Ile for Arg substitution at position 217 (PR3I217R). Wild type and recombinant PR3 were then assayed with FRET substrates derived from the PR3/NE substrate Abz-QPMAVVQSVPQ-EDDnp, and bearing either a negatively charged residue (Abz-QDMAVVQSVPQ-EDDnp) or a positively charged residue (QKMAVVQSVPQ-EDDnp) at P4. Wild type and recombinant proteases all cleave the original substrate at the V—V bond with about the same kcat/Km (Table 2).
We observed that a large panel of amino acid residues could be accommodated at the PR3 P3 subsite using a series of FRET substrates but a Tyr was preferred at this position (Table 3).

PR3I217R [1] = biological target: T2, PR3I217R (Homo sapiens, UniProt P24158, I221R); test: as above; type: biochemical
T2 construct: made in house; host or cells: Drosophila S2 cells
T2 sequence (P24158 28-248 I221R limits assumed): T1 sequence (P24158 28-248) with I194R
Description: (§2) Recombinant PR3K99L and […] were produced in Drosophila S2 cells using the calcium phosphate method, and stable cell lines were selected using puromycin. Proteins were purified by affinity chromatography on Chelating Sepharose and analyzed by SDS-PAGE. The total protein concentration was determined with a BCA Protein Assay
as §1

PR3K99L [2] = biological target: T3, PR3K99L (Homo sapiens, UniProt P24158, K115L); test: as above; type: biochemical
T3 construct: made in house; host or cells: Drosophila S2 cells
T3 sequence (P24158 28-248 K115L limits assumed): T1 sequence (P24158 28-248) with K88L
Description: as §2, §1

PR3I217R [3] = biological target: T2, PR3I217R; test: Residual activity of recombinant PR3 mutant in presence of increasing amounts of compound; type: biochemical
Description: as §2
(§3) Phosphonate inhibitors and their biotinylated and fluorescent derivatives were synthesized, purified and controlled by mass spectrometry as reported. Their purity was checked by HPLC (data not shown). Purified Ac-Asp-Tyr-Asp-Ala^P(O—C6H4-4-Cl)2 (compound 1) and Ac-Pro-Tyr-Asp-Ala^P(O—C6H4-4-Cl)2 (compound 2) were first assayed for their inhibitory properties by measuring the residual activity of the human neutrophil serine proteases PR3, HNE and CatG in the presence of increasing amounts of each compound. We used for this purpose the FRET substrates that we developed previously for each protease (18). An almost complete inhibition of PR3 (1 nM final) was obtained after a 30 min incubation time with 20 μM of compound 1 (FIG. 1) and 0.3 μM of compound 2 (FIG. 2). Recombinant PR3K99L, […], HNE and CatG were used in the same experimental conditions. […] This emphasizes the importance of the S2 and S4 subsites to discriminate between PR3 and HNE specificities. Significant inhibition of HNE was obtained using about 100 times more Ac-Pro-Tyr-Asp-Ala^P(O—C6H4-4-Cl)2 than required to inhibit PR3. […] We confirmed this observation kinetically by measuring the second order rate constants kobs/l by competition experiments between the PR3 substrate and each inhibitor (17). As expected the second order rate constant kobs/l for compound 2 was about 100 times greater than that for compound 1 (see Table 1).

PR3K99L [4] = biological target: T3, PR3K99L; test: as above; type: biochemical; conditions: Lys99 replaced by Leu in S2 subsite
Description: as §2, §3

PR3 [5] = biological target: T4, PR3 (Homo sapiens, UniProt P24158); test: Inhibition of PR3 in a lysate of purified human neutrophils; type: biochemical; conditions: conditions as with purified proteases
T4 construct: in a lysate of purified human neutrophils; endogenous in cells; host or cells: purified human neutrophils (lysate)
T4 sequence (P24158 28-248): T1 sequence (P24158 28-248)
Source text: (§4) We first studied the stability and the selectivity of compound 1, 2 and their biotinylated derivatives in a lysate of purified human neutrophils. […] Further, PR3 was selectively inactivated in the neutrophil lysate as shown by western blotting using biotinylated inhibitors.

[6] = Stability of inhibitors in neutrophil lysate (preincubation before adding substrates); type: in vitro ADME, human; conditions: one hour preincubation of neutrophil lysate-inhibitor mixture
Source text: as §4

Elastase = biological target: T5, Elastase (Homo sapiens, UniProt P08246); test: Protease inhibition assay, second order rate constant kobs/[I] (method of Tian and Tsou); type: biochemical; conditions: n.s where no significant inhibition
T5 sequence (P08246 30-267): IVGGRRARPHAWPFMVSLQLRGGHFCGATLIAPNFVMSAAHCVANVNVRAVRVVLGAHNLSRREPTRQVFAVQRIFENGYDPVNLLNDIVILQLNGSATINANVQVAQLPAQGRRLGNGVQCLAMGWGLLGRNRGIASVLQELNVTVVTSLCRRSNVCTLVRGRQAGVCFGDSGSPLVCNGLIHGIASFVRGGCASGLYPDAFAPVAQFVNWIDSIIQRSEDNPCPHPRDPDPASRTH
Description: (§5) The inactivation of proteases by substrate analog inhibitors in the presence of the substrate by competition for the enzyme-binding site, was measured by the method of Tian and Tsou (17). In this system, product formation in the presence of an irreversible inhibitor approaches an asymptote, as described by
(§6) log([P∞]−[P])=log [P∞]−0.43A[Y]t
(§7) where [P∞] is the concentration of product formed at time approaching infinity, [P] is the concentration of product at time t, [Y] is the inhibitor concentration, and A is the apparent inhibition rate constant in the presence of the substrate. A is given by
(§8) where k+0 is the rate constant for association of the inhibitor with the enzyme, K^−1 is the inverted Michaelis constant, and [S] the substrate concentration. The apparent inhibition rate constant A is the slope of a plot of log([P∞]−[P]) against t, to give the second-order rate constant of inhibition k+0

Proteinase 3 = biological target: T6, Proteinase 3 (Homo sapiens, UniProt P24158); test: as above; type: biochemical
T6 sequence (P24158 28-248): T1 sequence (P24158 28-248)
Description: The compounds of the invention are advantageously selective inhibitors of PR3. […] As described under the Examples below (see PR3 inhibition assay), and as is generally known, efficacy of particular inhibitors against a target protease, for example, recombinant human PR3, is determined by combining the target with a substrate (for example Suc-AanV-SBzI), both in the absence of the inhibitor and in the present of different concentrations of such inhibitor to be tested. Typically, the efficacy of irreversible inhibitors are measured in terms of the second order rate constant of inhibition value (11) or kobs/l. Preferred inhibitors of the invention have typically a kobs/I of more than 10 M^−1s^−1, preferably more than 100 M^−1s^−1, and more preferably of more than […].
as §5, §6, §7, §8

PR3 [7] = biological target: T4, PR3; test: Residual activity of purified protease with FRET substrate in presence of increasing amounts of compound; type: biochemical; conditions: PR3 1 nM final, 30 min incubation
Source text: as §3

CatG [8] = biological target: T7, CatG (Homo sapiens, UniProt P08311); test: as above; type: biochemical; conditions: CatG 1 nM, same experimental conditions as PR3
T7 sequence (P08311 21-244): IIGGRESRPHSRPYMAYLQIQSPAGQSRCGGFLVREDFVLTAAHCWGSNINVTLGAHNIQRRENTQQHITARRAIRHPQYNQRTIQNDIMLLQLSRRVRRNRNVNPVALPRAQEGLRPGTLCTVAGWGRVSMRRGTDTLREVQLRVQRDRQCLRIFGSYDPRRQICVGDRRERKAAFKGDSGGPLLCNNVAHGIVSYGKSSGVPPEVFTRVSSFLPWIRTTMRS
Source text: as §3

HNE [9] = biological target: T8, HNE (Homo sapiens, UniProt P08246); test: as above; type: biochemical; conditions: HNE 1 nM, same experimental conditions as PR3
T8 sequence (P08246 30-267): T5 sequence (P08246 30-267)
Source text: as §3

HNE [10] = biological target: T8, HNE; test: Inhibition of protease activity in crude lung secretions of patients (IPF, cystic fibrosis); type: biochemical; conditions: 30 min incubation, IPF and CF samples
PR3 [11] = biological target: T4, PR3; test: as above; type: biochemical; conditions: 30 min incubation, IPF and CF samples
Description: Crude lung secretions of patients with chronic inflammatory disorders associating significant neutrophil recruitment (IPF, Cystic fibrosis) were used as biological material to assay the efficacy of phosphonate inhibitors. We first measured the rate of cleavage of the PR3 substrate in >3 IPF and >3 CF crude samples before and after incubation with compounds 2 and 4 (×μM final). All crude samples cleaved the PR3 substrate in the absence of inhibitor and the cleavage always occurred at the expected bond, i.e. the cleavage bond of PR3, as checked by HPLC. The PR3 concentration was in the 0.1-1 μM range in lung secretions, based on the rate of substrate hydrolysis. […] Further, the rate of PR3 inactivation in a crude biological sample […] that of purified PR3, which means that there is no adverse effect impairing the PR3 inhibition in lung secretions of patients with inflammatory disorders.

CatG [12] = biological target: T7, CatG; test: as above; type: biochemical; conditions: 30 min incubation, IPF and CF samples

Row | Substance | factor of decrease of kcat/Km versus original substrate, wtPR3 (wtPR3) | factor of increase of kcat/Km versus original substrate, PR3I217R (PR3I217R [1]) | cleavage by PR3K99L (PR3K99L [2]) | inhibition of the Ile217 to Arg217 PR3 mutant compared with PR3K99L (PR3I217R [3]) | sensitivity of PR3K99L to inhibition compared with wt PR3 (PR3K99L [4]) | PR3 activity in neutrophil lysate (PR3 [5]) | inhibition potential after preincubation in neutrophil lysate [6] | Elastase kobs/[I] (Elastase) | Proteinase 3 kobs/[I] (Proteinase 3) | concentration giving almost complete inhibition of PR3 (PR3 [7]) | inhibition of CatG (CatG [8]) | inhibition of HNE (HNE [9]) | HNE activity in crude lung secretions (HNE [10]) | hydrolysis of PR3 substrate in crude lung secretions (PR3 [11]) | CatG activity in crude lung secretions (CatG [12]) | kobs/I range (Proteinase 3; PR3)
1 | ABZ-Gln-Asp-Met-Ala-Val-Val-Gln-Ser-Val-Pro-Gln-EDDnp (Abz-QDMAVVQSVPQ-EDDnp) [FRET substrate with negatively charged residue at P4] | 3 | 6 times | completely resists cleavage | – | – | – | – | – | – | – | – | – | – | – | – | –
2 | Ac-Asp-Tyr-Asp-Ala^P(O—C6H4-4-Cl)2 (Ac-DYD[AlaP]; not fully specified (C-terminus); printed as Ac-Asp-Tyr-Asp-Ala^P(O—C6H4-4-Cl)2; reading uncertain; also: C-terminal Ala as phosphonate analogue (Ala^P)) [Compound 1] | – | – | – | more efficient toward this mutant | far less sensitive to inhibition | totally inactivated | No loss of the inhibition potential | n.s | 1.9 ± 0.3 M⁻¹ s⁻¹ | 20 µM | no significant inhibition | no significant inhibition | – | – | – | –
3 | Biotin-Pro-Tyr-Asp-Ala^P(O—C6H4-4-Cl)2 [Compound 4] | – | – | – | – | – | – | – | n.s | 4168 ± 553 M⁻¹ s⁻¹ | – | – | – | remained unchanged | total inhibition | remained unchanged | ~10^3 M^−1s^−1

Source: patent publication US20160257710A1, “SELECTIVE INHIBITORS OF PROTEINASE 3” (INSERM (INSTITUT NATIONAL DE LA SANTÉ ET LA RECHERCHE …, priority 2013, published 2016)
